Laboratory results from patent US20230110188A1 (ARGENX IIP, published 2023).
Residue numbers refer to the chain shown, from its start.

T1: Human MuSK (R&D Systems, cat. 10189-MK, histidine tag) (human, UniProt O15146 24-495)
T1 construct: Bought protein; also called human monomeric MuSK-6xhis; not shown: histidine tag (6xhis)
T1 sequence: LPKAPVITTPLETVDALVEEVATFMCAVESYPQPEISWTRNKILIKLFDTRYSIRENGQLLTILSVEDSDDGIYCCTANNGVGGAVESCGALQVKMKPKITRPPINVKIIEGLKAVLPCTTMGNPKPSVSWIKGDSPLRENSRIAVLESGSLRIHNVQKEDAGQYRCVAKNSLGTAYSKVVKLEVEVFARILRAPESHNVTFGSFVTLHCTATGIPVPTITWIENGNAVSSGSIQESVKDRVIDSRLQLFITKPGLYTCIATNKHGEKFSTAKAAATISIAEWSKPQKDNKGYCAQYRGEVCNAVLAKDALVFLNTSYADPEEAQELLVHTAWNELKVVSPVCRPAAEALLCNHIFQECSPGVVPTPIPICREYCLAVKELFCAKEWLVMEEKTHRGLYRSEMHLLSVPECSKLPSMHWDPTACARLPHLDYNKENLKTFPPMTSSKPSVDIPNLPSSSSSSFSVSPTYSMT

T2: human monomeric MuSK FLAG streptavidin (in house produced, batch 27-6-2019) (human, UniProt O15146 24-495)
T2 construct: also called full length MuSK; not shown: FLAG and streptavidin tags
T2 sequence: T1 sequence

T3: hMuSK delta 1 (Ig2-3 Fz) (human, UniProt O15146)
T3 construct: truncated extracellular domain, captured by anti-FLAG
T3 sequence (truncated extracellular domain, looked up): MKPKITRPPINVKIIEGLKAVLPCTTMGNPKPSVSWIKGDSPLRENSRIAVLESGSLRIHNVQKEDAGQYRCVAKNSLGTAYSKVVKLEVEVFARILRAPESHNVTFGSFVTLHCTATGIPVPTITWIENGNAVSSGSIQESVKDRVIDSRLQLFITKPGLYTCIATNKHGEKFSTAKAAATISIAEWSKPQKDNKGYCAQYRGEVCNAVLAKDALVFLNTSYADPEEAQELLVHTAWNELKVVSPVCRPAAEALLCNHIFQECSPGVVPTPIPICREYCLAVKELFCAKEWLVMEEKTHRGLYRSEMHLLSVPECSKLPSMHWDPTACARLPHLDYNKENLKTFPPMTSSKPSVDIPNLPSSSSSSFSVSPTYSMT

B1: 3D10a (antibody, human IgG1, kappa, L234A L235A, V domains shown)
VH: EVQLVESGGGLVKPGGSLRLSCAASGFTFSASTMAWVRQAPGKGLEWVSSVSGDSHHIYYADSLKGRFTISRDNAKNSLYLQMNSLRAEDTAVYYCARERLLRLGVGFDSWGQGTLVTVSS
VL: DIQMTQSPSSLSASVGDRVTITCRASQRISGFVNWYQQKPGKAPKLLIYAASTLQSGVPSRFSGSGSGTDFTLTISSLQPEDFATYYCQQSYSPLYTFGQGTKLEIKR
B2: 4D3 (antibody, human IgG1, kappa, L234A L235A, V domains shown)
VH: B1 VH with A31S, S32Y, A35T, V51I, G53S, D54G, S55G, H57Y, A61T, S110F
VL: B1 VL with R28S, F32Y, V33L, P94A
B3: 3F6c (antibody, human IgG1, kappa, L234A L235A, V domains shown)
VH: EVQLVESGGGLVKPGGSLRLSCAASGFTFSSYTMDWVRQAPGKGLEWVSSIGSNGDYIYYADSVRGRFTISRDNAKNSLYLQMNSLRAEDTAVYYCARGQLAVAGTHFDYWGQGTLVTVSS
VL: B1 VL with R28K, I29V, S30N, G31K, F32Y, Y96S
B4: 3D9b (antibody, human IgG1, kappa, L234A L235A, V domains shown)
VH: EVQLVESGGGLVKPGGSLRLSCAASGFTFSTYTMHWVRQAPGKGLEWVSSISSRSAYKYYADSVKGRFTISRDNAKNSLYLQMNSLRAEDTAVYYCARDFFQLGPPRFDSWGQGTLVTVSS
VL: B1 VL with G31S, V33L, A50G, T53N, L95S

Each binder was assayed against T1, Human MuSK (R&D Systems, cat. 10189-MK, …) (assay: SPR (Biacore), antibody captured on anti-hFc chip; average of 0.3125-10 nM; dissociation pH 7.4).
Description: (§1) In order to study pH dependent binding of our antibodies to MuSK, the Biacore was used with the same setup as described in the paragraph entitled “Binding affinity for mouse, human and rhesus monkey recombinant MuSK in Biacore”. 6. […] For the other antibodies there is no real difference observed between pH 7.4 and 5.5.

B1 and B2 are within 1.5-fold of each other in koff: 0.00016 s⁻¹ for the first, 0.00014 s⁻¹ for the second.

Going from B3 to B4, the koff rises from 8e-05 s⁻¹ to 0.00012 s⁻¹ (1.5-fold).

The binders below were run against T2, human monomeric MuSK FLAG streptavidin … (assay: epitope binning ELISA (coated anti-MuSK Fab, MuSK, IgG, anti-Fc HRP); competitor: 4D3).
Protocol: For epitope binning—An ELISA plate was coated at 1 μg/ml of the anti-MuSK Fabs and incubated overnight at 4° C. Next, the plate was wash with PBS followed by blocking with 1% casein in PBS for one hour. After washing the plate, 1 μg/ml of human monomeric MuSK (in house produced, batch 27-6-2019) was incubated for one hour at RT. The plate was washed and anti-MuSK antibodies at 0.3-10 μg/ml were added to the plate and incubated for one hour at RT. After washing the plate, detection antibody (goat anti-human Fc HRP (Jackson Immunoresearch cat. 109-035-098)) was added at 5000 fold dilution in PBS 0.1% casein. The plate was incubated for one hour at RT and washed with PBS-T. TMB was added and the reaction was stopped by adding H2504. […]
For the epitope binning ELISA, a plate was coated with anti-MuSK Fab and human monomeric MuSK was added after blocking the plate. Next the different antibodies were added and allowed to bind.

Going from B1 to B2, the “OD 450 nm” value falls from 0.062 OD to 0.023 OD.

Going from B3 to B4, the “OD 450 nm” value rises from 0.076 OD to 0.086 OD.

Each binder was assayed against T1, Human MuSK (R&D Systems, cat. 10189-MK, …) (assay: SPR (Biacore), antibody captured on anti-hFc chip; 10 nM; dissociation pH 7.4).
Description: as §1

B1 and B2 are within 1.5-fold of each other in koff: 0.00014 s⁻¹ for the first, 0.00013 s⁻¹ for the second.

B3 and B4 are within 1.5-fold of each other in koff: 6e-05 s⁻¹ for the first, 8e-05 s⁻¹ for the second.

The binders below were run against T3, hMuSK delta 1 (Ig2-3 Fz) (assay: ELISA, hMuSK delta 1 (Ig2-3 Fz) captured on anti-FLAG coat, antibody titrated, anti-human Fc HRP detection, OD450).
Protocol: For binding to MuSK domains—An ELISA plate was coated with 0.5 μg/ml of anti-FLAG (M2 clone, Sigma Cat. F3165) and incubated overnight at 4° C. Next, the plate was washed with PBS and blocked with 1×PBS 1% casein for two hours at RT. After washing the plate, human monomeric MuSK FLAG streptavidin (batch 27-6-2019) and truncated MuSK variants (batch 3-9-2019) at 1 μg/ml in PBS where incubated for one hour at RT. After washing the plate, antibodies were diluted in blocking buffer and added to the plate. After a one hour incubation at RT, the plate was washed. Next, detecting antibody was added and incubated for one hour at RT (anti-human Fc HRP (1/5000) (clone 5A9, cat. No. Ab7499, ABCAM)) in blocking buffer. Lastly, the plate was washed with PBS and TMB was added and the reaction was stopped with 0.5 M H2SO4. OD 450 nm was determined by the Tecan Sunrise ELISA plate reader.
For the MuSK domain binding ELISA, binding of anti-MuSK antibodies to FLAG captured human monomeric MuSK and truncated variants was tested (FIG. 6). 3D9b, 3F6c, 3D10a, 4D3 and 3B5 bound only to full length MuSK, no binding was observed against the truncated MuSK variants. Therefore, we conclude that our antibodies bind to the Ig1 domain.

B1: no binding (tested: log(conc) 4.2 (about 16000 ng/ml)).
B2: no binding (tested: log(conc) 4.2 (about 16000 ng/ml)).
B3: no binding (tested: log(conc) 4.2 (about 16000 ng/ml)).
B4: no binding (tested: log(conc) 4.2 (about 16000 ng/ml)).

What follows are binders tested against T1, Human MuSK (R&D Systems, cat. 10189-MK, …) (assay: SPR (Biacore), MuSK-coated chip presaturated with 500 nM 3D10a (competitor)).
Protocol: A chip was coated with ˜5000 RU of human MuSK (Lot nr DHUCO 11908A, batch nr 1089_MK). In a first experiment the saturating concentration of the pre-leads was determined. This is the concentration where the amplitude of a specific pre-lead doesn't increase anymore when additional pre-lead is injected on the immobilized MuSK.

First: B1
Second: B2
The “amplitude of prelead after presaturating MuSK (RU)” value of the first is higher: 56 RU for the first, 42 RU for the second.

Going from B3 to B4, the “amplitude of prelead after presaturating MuSK (RU)” value rises from 26 RU to 169 RU.

First: B1
Second: B2
The “extra amplitude (%)” value of the first is higher: 1.8% for the first, 1.6% for the second.

Compared with B3, B4 is higher in “extra amplitude (%)” value: 1% for the first, 8% for the second.

First: B1
Second: B2
The “normalized extra amplitude (%)” value of the first is higher: 0.2% for the first, 0% for the second.

First: B3
Second: B4
The “normalized extra amplitude (%)” value of the first is lower: -0.6% for the first, 6.4% for the second.
